According to paper PMC6572826, “Native top-down mass spectrometry provides insights into the copper centers of membrane-bound methane monooxygenase” (Nature Communications, 2019):

T1: PmoB subunit of particulate methane monooxygenase from Methylomicrobium alcaliphilum 20Z (20Z-pMMO) (Methylomicrobium alcaliphilum 20Z, UniProt G4SZ64 33-414, methyl-lysine at Lys 36 (~100% stoichiometry))
T1 construct: PmoB subunit of pMMO, Methylomicrobium alcaliphilum 20Z; residues His 33 to Ile 414 after cleavage of the N-terminal signal peptide; theoretical mass 42,147.17 Da; also called 20Z-pMMO PmoB; source: endogenous, Mm. alcaliphilum 20Z membranes, solubilized with DDM, purified by anion exchange chromatography
T1 sequence (looked up): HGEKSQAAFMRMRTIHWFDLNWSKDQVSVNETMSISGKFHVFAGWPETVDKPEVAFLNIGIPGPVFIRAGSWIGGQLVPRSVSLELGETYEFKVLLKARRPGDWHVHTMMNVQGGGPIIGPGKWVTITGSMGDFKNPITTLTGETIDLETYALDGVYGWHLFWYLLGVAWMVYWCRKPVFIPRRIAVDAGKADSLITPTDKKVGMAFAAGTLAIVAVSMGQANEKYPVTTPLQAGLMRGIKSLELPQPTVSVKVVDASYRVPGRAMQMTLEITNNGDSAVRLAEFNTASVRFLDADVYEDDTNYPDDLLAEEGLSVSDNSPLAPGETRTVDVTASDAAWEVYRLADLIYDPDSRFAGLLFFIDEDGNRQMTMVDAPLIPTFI

B1: PmoA subunit of particulate methane monooxygenase from Methylomicrobium alcaliphilum 20Z (20Z-pMMO) (natural protein, UniProt G4SZ63 2-247, looked up)
chain: SASQSAVRSRAEAVKVSRTFDYMILFTVFFVVLGGYHIHYMLTGGDWDFWTDWKDRRLWVTVAPIVSITFPAAVQAVLWWRYRIAWGATLCVLGLLLGEWINRYFNFWGWTYFPVNFVFPSNLMPGAIVLDVILMLSNSMTLTAVVGGLAWGLLFYPGNWPIIAPLHVPVEYNGMMMTLADLQGYHYVRTGTPEYIRMVEKGTLRTFGKDVAPVSAFFSGFVSILIYFLWHFFGSWFGSEKFVQAA
modifications: initiator methionine removed (MetOFF); N-terminal acetylation (NtAc) on the new N-terminus
notes: PmoA subunit of pMMO, Methylomicrobium alcaliphilum 20Z; theoretical mass of the unmodified subunit 28,257.1 Da; found without the initiator methionine and N-terminally acetylated; also called 20Z-pMMO PmoA; source: endogenous, Mm. alcaliphilum 20Z membranes, solubilized with DDM, purified by anion exchange chromatography
B2: PmoC subunit of particulate methane monooxygenase from Methylomicrobium alcaliphilum 20Z (20Z-pMMO), truncated proteoform (natural protein, UniProt G4SZ62 7-250, looked up)
chain: SVKADAAEAPLLNKKNIIAGASLYLVFYAWVRWYEGVYGWSAGLDSFAPEFETYWMNFLYIEMVLEVLTASVLWGYIWKSRDRKVMSITPREELRRHFTHWTWLMMYGIAIYFGASYFTEQDGTWHQTIVRDTDFTPSHIIEFYLSYPIYIITGGASFLYAKTRLPTYQQGLSLQYLVVVVGPFMILPNVGLNEWGHTFWFMEELFVAPLHYGFVFFGWSALGVLGVINIELGALSKLLKKDLA
notes: PmoC subunit of pMMO, Methylomicrobium alcaliphilum 20Z; the major species is a truncated form without the first six N-terminal residues (MAATTE); theoretical mass of the whole subunit 28,851.4 Da; A minor PmoC species without the initiator methionine and with N-terminal acetylation was also seen from nanodiscs; also called truncated PmoC; 20Z-pMMO PmoC; source: endogenous, Mm. alcaliphilum 20Z …

How the values were obtained:
[1] = target: T1, PmoB subunit of particulate methane …; assay: native MS; pMMO solubilized in DDM, exchanged into 200 mM ammonium acetate, pH 7.2, 0.155% (w/v) Triton X-100; protomer ejected from the micelle (MS^1), then subunits ejected from the protomer by collisional activation (MS^2); conditions: both partners purified
[2] = target: B1; assay: native MS; pMMO in POPC nanodiscs (MSP2N2 or MSP1E3D1), 200 mM ammonium acetate, pH 7.2; subunits ejected from the pMMO-nanodisc complex by CID at the source (MS^2) and fragmented (MS^3); no intact mass of the complex obtained; conditions: both partners purified

| Binder | binding result [1] | binding result [2] |
| --- | --- | --- |
| B1 | binds |  |
| B2 | binds | binds |
